Source: patent US20190100588A1 (VISTERRA, published 2019)

Key:
[1] = target: T1, cell surface CD138 (human CD138) (human, UniProt P18827 23-310); test: flow cytometry, U266 cells
T1 construct: whole, on cells; also called membrane CD138
T1 sequence (looked up): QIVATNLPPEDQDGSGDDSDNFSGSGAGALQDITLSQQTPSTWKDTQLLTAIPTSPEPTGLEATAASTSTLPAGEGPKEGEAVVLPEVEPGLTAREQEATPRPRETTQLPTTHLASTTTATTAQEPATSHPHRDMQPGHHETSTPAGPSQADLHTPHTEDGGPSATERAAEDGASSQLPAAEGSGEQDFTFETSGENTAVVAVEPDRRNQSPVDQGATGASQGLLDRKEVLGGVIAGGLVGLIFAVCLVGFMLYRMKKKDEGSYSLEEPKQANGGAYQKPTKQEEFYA
Description: (§1) Binding of anti-CD138 antibodies to CD138 was tested by flow cytometry binding assay. Multiple myeloma cell lines RPMI 8226 (ATCC) and U266 (ATCC) were grown in RPMI1640 with 10% FBS. On the day of experiment, 0.25×10⁶ cells were washed with FACS buffer (PBS+0.5% BSA) and incubated with dilution series of anti-CD138 antibodies (starting 10 ug/ml) or hybridoma supernatants (starting with undiluted supernatant) for 30 min at 4° C. followed by incubation with goat-anti-human/mouse conjugated APC antibodies (BioLegend) for 30 min at 4° C. Fluorescence was detected using flow cytometer.
(§2) The afucosylated antibody variants were then tested for capacity to induce ADCC, as described above.

[2] = target: T2, Peptide 2a (human); test: peptide binding ELISA
T2 construct: also called Pep2a
T2 peptide: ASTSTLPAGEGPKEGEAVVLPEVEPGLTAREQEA
Description: (§3) As above, the monoclonal antibodies were tested for binding to a series of CD138 peptides in four-fold serial dilutions starting at 1 μg/mL. […] HRP-conjugated anti-human IgG-Fc antibody (1:5000 dilution) was used for detection. Antibody B-B4 was also tested as a reference. […] Reference antibody B-B4 only bound to Peptide 2a.

[3] = target: T3, Pep6 (human); test: peptide binding ELISA
T3 construct: also called Peptide 6; Peptide-6
T3 peptide: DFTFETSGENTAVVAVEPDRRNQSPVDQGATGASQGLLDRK
Description: as §3

[4] = target: T4, Peptide 6B (human, biotin at the amino terminus); test: bio-layer interferometry, biotinylated peptide
T4 construct: also called Pep6b
T4 peptide: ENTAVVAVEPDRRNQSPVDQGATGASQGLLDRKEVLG

[5] = target: T5, Peptide 6E (human, biotin at the amino terminus); test: bio-layer interferometry, biotinylated peptide
T5 construct: also called Pep6e
T5 peptide: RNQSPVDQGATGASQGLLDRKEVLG

[6] = target: T6, Peptide 2C (human, biotin at the amino terminus); test: bio-layer interferometry, biotinylated peptide
T6 construct: also called Pep2c
T6 peptide: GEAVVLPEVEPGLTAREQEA

[7] = target: T7, recombinant CD138 extracellular domain (soluble CD138) (human, UniProt P18827 23-250); test: ELISA, soluble CD138
T7 construct: also called soluble CD138 extracellular domain; biotinylated CD138
T7 sequence: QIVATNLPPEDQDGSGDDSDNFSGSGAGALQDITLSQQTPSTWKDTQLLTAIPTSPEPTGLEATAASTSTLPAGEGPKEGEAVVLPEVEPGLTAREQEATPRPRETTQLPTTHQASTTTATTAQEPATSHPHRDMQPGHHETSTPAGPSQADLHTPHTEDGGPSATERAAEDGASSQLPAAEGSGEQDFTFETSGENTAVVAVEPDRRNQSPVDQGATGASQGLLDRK
Description: (§4) Antibody B-B4 was included as a reference. Briefly, the monoclonal antibodies were tested for binding to recombinant CD138 extracellular domain consisting of amino acids 23-254 of human CD138, in four-fold serial dilutions starting at 1 μg/mL. HRP-conjugated anti-human IgG-Fc antibody (1:5000 dilution) was used for detection.

[8] = target: T7, recombinant CD138 extracellular domain …; test: ELISA (FIG. 18A)
[9] = target: T3, Pep6; test: ELISA (FIG. 18C)
[10] = target: T2, Peptide 2a; test: ELISA (FIG. 18B)
[11] = target: T4, Peptide 6B; test: ELISA with captured antibody (FIG. 21); also bio-layer interferometry (FIG. 22A)
Description: Briefly, biotinylated peptides (Peptides 2A, 2D, 6B, and 6F; sequences shown in FIG. 22C) were used at 50 nM and captured on streptavidin capture biosensors. Antibodies were then run over the captured peptides at concentrations of 25 nM to 6.25 nM.

[12] = target: T1, cell surface CD138 (human CD138); test: flow cytometry, U266 cells, afucosylated antibody
Description: as §1, §2

[13] = target: T8, mutated CD138 Clone 5 (human, UniProt P18827 23-310); test: staining of Expi293 cells expressing the CD138 variant
T8 construct: Leu107, Pro108, Glu109 mutated to Ala; Expressed on Expi293 cells
T8 chain: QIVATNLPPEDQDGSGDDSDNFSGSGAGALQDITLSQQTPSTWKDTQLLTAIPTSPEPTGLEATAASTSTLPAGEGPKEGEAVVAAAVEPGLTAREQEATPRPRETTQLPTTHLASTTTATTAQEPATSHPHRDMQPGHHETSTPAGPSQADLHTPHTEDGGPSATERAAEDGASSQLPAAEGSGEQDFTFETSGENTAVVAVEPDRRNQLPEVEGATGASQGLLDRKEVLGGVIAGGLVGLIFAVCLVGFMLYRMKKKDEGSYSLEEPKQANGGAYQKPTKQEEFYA

[14] = target: T9, mutated CD138 Clone 2 (human, UniProt P18827 23-310); test: as above
T9 construct: Leu107, Pro108, Glu109 mutated to Ala; Expressed on Expi293 cells
T9 chain: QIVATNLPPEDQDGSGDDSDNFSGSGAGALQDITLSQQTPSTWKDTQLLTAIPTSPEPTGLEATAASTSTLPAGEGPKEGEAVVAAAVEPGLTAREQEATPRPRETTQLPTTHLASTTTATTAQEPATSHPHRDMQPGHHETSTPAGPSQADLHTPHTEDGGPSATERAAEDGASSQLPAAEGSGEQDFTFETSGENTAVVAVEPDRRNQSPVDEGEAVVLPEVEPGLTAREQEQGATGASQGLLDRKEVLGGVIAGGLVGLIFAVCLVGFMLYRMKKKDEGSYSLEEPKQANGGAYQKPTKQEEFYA

[15] = target: T10, mutated CD138 Clone 4 (human, UniProt P18827 23-310); test: as above
T10 construct: Leu107, Pro108, Glu109 mutated to Ala; Expressed on Expi293 cells
T10 chain: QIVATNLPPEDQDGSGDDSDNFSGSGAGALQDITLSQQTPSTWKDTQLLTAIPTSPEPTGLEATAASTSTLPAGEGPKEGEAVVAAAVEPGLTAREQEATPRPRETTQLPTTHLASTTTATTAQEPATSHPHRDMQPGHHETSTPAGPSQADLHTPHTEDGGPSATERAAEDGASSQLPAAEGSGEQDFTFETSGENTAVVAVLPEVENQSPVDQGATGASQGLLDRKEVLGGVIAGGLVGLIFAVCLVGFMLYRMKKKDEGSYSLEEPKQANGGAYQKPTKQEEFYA

[16] = target: T11, mutated CD138 Clone 1 (human, UniProt P18827 23-310); test: as above
T11 construct: Leu107, Pro108, Glu109 of the original site mutated to Ala; Expressed on Expi293 cells
T11 chain: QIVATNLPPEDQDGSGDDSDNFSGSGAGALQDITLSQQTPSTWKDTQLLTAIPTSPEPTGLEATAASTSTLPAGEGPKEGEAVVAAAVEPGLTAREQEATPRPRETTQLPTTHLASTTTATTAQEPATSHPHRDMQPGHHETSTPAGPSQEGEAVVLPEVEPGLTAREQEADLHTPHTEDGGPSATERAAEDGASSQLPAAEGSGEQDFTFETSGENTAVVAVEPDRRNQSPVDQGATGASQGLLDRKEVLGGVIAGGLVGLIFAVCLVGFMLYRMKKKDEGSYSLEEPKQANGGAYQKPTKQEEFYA

[17] = target: T12, Pep5 (human); test: peptide binding ELISA
T12 construct: also called Peptide 5
T12 peptide: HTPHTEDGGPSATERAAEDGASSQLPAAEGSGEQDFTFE
Description: as §3

[18] = target: T7, recombinant CD138 extracellular domain …; test: ELISA, recombinant CD138 extracellular domain
Description: as §4

B1: antibody 1610 (antibody, V domains shown)
VH: QVQLHQPGTSLVKPGASVKLSCKASGYNFSSYYMHWVKQRPGQGLEWIGTIHPSDSTTNCNQKFKGKATLTVDKSSRTAYMQLNSLTFEDSAVYYCANFVYWGQGTSVTVSS
VL: DIVITQDELSNPVTSGDSVSISCRSSKSLLYKDGKTYLNWFLQRPGQSPQLLIYVVSTRASGVSDRFSGSGSGTDFTLEISRVKAEDVGVYYCQQLVEYPYTFGGGTKLEIK
notes: Chimeric monoclonal antibody, murine variable regions and human IgG1
EC50 [1]: 1.9 ng/mL | binding result [2]: binds | binding result [3]: binds | binding result [4]: binds | binding result [5]: no binding | binding result [6]: binds | EC50 [7]: 0.394 µg/mL

B2: antibody 2810 (antibody, V domains shown)
VH: QVQLHQPGTSLVKPGASVKLSCKASGYSFSSYYMHWVKQRPGQGLEWIGTIHPSDSTTNYNQKFKGKATLTVDKSSRTAYMQLNSLTFEDSAVYYCANFVYWGQGTSVTVSS
VL: DIVITQDELSNPVTSGDSVSISCRSSKSLLYKDGKTYLNWFLQRPGQSPQLLIYVVSTRASGVSDRFSGSGSGTDFTLEISRVKAEDVGVYYCQQLVEYPYTFGGGTKLEIK
binding result [8]: binds | binding result [9]: binds | binding result [10]: binds | binding result [11]: binds | binding result [12]: binds

B3: antibody B-B4 (antibody, V domains shown)
VH: QVQLQQSGSELMMPGASVKISCKATGYTFSNYWIEWVKQRPGHGLEWIGEILPGTGRTIYNEKFKGKATFTADISSNTVQMQLSSLTSEDSAVYYCARRDYYGNFYYAMDYWGQGTSVTVSS
VL: DIQMTQSTSSLSASLGDRVTISCSASQGINNYLNWYQQKPDGTVELLIYYTSTLQSGVPSRFSGSGSGTDYSLTISNLEPEDIGTYYCQQYSKLPRTFGGGTKLEIK
notes: detected with anti-human IgG-Fc; afucosylated and biotinylated versions also used; also called B-B4-IgG1; MAb B-B4
binding result [2]: binds | binding result [4]: no binding | binding result [13]: binds | binding result [14]: binds | binding result [15]: binds | binding result [16]: binds

B4: antibody CD002 (antibody, V domains shown)
VH: QVQLQQPGAELVKPGASVKLSCKASGFSFITYWMNWIKQRPGRGLEWIGRIHPSDSATQYNQKFKTKATLTVDKSSSTAYIQLSSLTSEDSAVYYCARSTEGAHWGQGTLVTVSA
VL: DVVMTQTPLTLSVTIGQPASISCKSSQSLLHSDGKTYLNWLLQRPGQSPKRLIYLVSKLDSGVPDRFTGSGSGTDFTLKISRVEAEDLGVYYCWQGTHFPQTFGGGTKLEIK
binding result [17]: binds | binding result [18]: binds
